Source: IntAct's records for PubMed 29039417

B1: BBSome complex member BBS5 (Homo sapiens), Q8N3I7 (parent)
chain: MSVLDALWEDRDVRFDLSAQQMKTRPGEVLIDCLDSIEDTKGNNGDRGRLLVTNLRILWHSLALSRVNVSVGYNCILNITTRTANSKLRGQTEALYILTKCNSTRFEFIFTNLVPGSPRLFTSVMAVHRAYETSKMYRDFKLRSALIQNKQLRLLPQEHVYDKINGVWNLSSDQGNLGTFFITNVRIVWHANMNDSFNVSIPYLQIRSIKIRDSKFGLALVIESSQQSGGYVLGFKIDPVEKLQESVKEINSLHKVYSASPIFGVDYEMEEKPQPLEALTVEQIQDDVEIDSDGHTDAFVAYFADGNKQQDREPVFSEELGLAIEKLKDGFTLQGLWEVMS
partner: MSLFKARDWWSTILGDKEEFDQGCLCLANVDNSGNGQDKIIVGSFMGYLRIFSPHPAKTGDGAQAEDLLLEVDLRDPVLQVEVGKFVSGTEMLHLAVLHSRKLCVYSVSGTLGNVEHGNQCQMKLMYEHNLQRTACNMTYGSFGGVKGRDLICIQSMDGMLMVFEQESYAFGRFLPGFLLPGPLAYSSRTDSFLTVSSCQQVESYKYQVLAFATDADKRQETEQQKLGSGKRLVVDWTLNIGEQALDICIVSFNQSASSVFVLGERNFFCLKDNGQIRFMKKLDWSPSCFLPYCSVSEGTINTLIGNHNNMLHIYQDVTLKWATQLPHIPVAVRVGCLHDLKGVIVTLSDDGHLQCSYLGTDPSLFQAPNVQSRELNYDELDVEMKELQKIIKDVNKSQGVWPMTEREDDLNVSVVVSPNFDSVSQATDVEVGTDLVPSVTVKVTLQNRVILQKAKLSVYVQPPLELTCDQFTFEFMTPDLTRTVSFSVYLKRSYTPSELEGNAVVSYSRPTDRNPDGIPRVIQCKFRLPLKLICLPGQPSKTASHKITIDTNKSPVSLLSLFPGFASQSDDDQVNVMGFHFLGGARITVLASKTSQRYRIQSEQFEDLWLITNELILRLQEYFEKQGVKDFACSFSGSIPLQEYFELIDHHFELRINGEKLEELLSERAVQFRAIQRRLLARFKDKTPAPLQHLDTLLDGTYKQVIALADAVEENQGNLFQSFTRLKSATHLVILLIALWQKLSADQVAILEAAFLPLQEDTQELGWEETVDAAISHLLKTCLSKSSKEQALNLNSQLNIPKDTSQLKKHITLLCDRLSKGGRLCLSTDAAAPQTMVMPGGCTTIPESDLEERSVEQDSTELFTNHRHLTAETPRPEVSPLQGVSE
B2: BBSome complex member BBS2 (Homo sapiens), Q9BXC9 (parent)
chain: MLLPVFTLKLRHKISPRMVAIGRYDGTHPCLAAATQTGKVFIHNPHTRNQHVSASRVFQSPLESDVSLLSINQAVSCLTAGVLNPELGYDALLVGTQTNLLAYDVYNNSDLFYREVADGANAIVLGTLGDISSPLAIIGGNCALQGFNHEGSDLFWTVTGDNVNSLALCDFDGDGKKELLVGSEDFDIRVFKEDEIVAEMTETEIVTSLCPMYGSRFGYALSNGTVGVYDKTSRYWRIKSKNHAMSIHAFDLNSDGVNELITGWSNGKVDARSDRTGEVIFKDNFSSAIAGVVEGDYRMDGHIQLICCSVDGEIRGYLPGTAEMRGNLMDTSAEQDLIRELSQKKQNLLLELRNYEENAKAELASPLNEADGHRGIIPANTRLHTTLSVSLGNETQTAHTELRISTSNDTIIRAVLIFAEGIFTGESHVVHPSIHNLSSSICIPIVPPKDVPVDLHLKAFVGYRSSTQFHVFESTRQLPRFSMYALTSLDPASEPISYVNFTIAERAQRVVVWLGQNFLLPEDTHIQNAPFQVCFTSLRNGGHLHIKIKLSGEITINTDDIDLAGDIIQSMASFFAIEDLQVEADFPVYFEELRKVLVKVDEYHSVHQKLSADMADHSNLIRSLLVGAEDARLMRDMKTMKSRYMELYDLNRDLLNGYKIRCNNHTELLGNLKAVNQAIQRAGRLRVGKPKNQVITACRDAIRSNNINTLFKIMRVGTASS
partner: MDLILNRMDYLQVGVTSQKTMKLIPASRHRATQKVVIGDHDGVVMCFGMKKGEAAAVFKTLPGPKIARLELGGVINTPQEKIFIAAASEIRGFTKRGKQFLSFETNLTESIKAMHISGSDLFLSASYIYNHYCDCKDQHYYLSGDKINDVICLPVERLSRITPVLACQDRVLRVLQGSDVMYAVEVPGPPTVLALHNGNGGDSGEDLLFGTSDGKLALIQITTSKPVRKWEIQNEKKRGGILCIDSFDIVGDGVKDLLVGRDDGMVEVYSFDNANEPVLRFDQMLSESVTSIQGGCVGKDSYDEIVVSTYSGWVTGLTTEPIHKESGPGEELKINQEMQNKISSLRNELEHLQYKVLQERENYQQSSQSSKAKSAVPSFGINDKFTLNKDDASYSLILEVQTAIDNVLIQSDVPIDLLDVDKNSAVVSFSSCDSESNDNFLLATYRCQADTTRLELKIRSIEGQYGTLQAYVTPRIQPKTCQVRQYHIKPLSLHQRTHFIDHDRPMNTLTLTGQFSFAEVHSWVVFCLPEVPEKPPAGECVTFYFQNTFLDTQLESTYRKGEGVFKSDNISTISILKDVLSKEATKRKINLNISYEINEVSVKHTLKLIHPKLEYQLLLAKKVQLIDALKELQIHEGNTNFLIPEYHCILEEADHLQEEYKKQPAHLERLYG

Variants of: B1
Details: with pthb1_human BBS9, Q3SYG4
In the case of N85K, the “effect of a mutation on the interaction” value is reported as “with no effect”. T92K was tested, and the “effect of a mutation on the interaction” value was “with no effect”. With L233K the “effect of a mutation on the interaction” value was “with no effect”. In the case of F106K, the “effect of a mutation on the interaction” value is reported as “with no effect”. G116A was tested, and the “effect of a mutation on the interaction” value was “with no effect”. For T332K, the “effect of a mutation on the interaction” value was “with no effect”. In the case of S228A, the “effect of a mutation on the interaction” value is reported as “with no effect”. In the case of Q310E, the “effect of a mutation on the interaction” value is reported as “with no effect”. With A301E the “effect of a mutation on the interaction” value was “with no effect”. For D238E, the “effect of a mutation on the interaction” value was “with no effect”. With I182A the “effect of a mutation on the interaction” value was “with no effect”. L322A was tested, and the “effect of a mutation on the interaction” value was “with no effect”. V69E was tested, and the “effect of a mutation on the interaction” value was “with no effect”. In the case of S61K, the “effect of a mutation on the interaction” value is reported as “with no effect”. With N307K the “effect of a mutation on the interaction” value was “with no effect”. N198K was tested, and the “effect of a mutation on the interaction” value was “with no effect”. For T122K, the “effect of a mutation on the interaction” value was “with no effect”. In the case of S171K, the “effect of a mutation on the interaction” value is reported as “with no effect”. F299A was tested, and the “effect of a mutation on the interaction” value was “with no effect”. With L30K the “effect of a mutation on the interaction” value was “with no effect”. S292K was tested, and the “effect of a mutation on the interaction” value was “with no effect”. In the case of R11A, the “effect of a mutation on the interaction” value is reported as “disrupting interaction strength”. Q244K was tested, and the “effect of a mutation on the interaction” value was “with no effect”. Q309K was tested, and the “effect of a mutation on the interaction” value was “disrupting interaction strength”. For S258E, the “effect of a mutation on the interaction” value was “with no effect”. G72E was tested, and the “effect of a mutation on the interaction” value was “with no effect”. With R89K the “effect of a mutation on the interaction” value was “with no effect”. With I284K the “effect of a mutation on the interaction” value was “with no effect”. For I31A, the “effect of a mutation on the interaction” value was “disrupting interaction strength”. For I187K, the “effect of a mutation on the interaction” value was “with no effect”. R14E was tested, and the “effect of a mutation on the interaction” value was “disrupting interaction strength”. For P273E, the “effect of a mutation on the interaction” value was “with no effect”. For H254A, the “effect of a mutation on the interaction” value was “with no effect”. With L276K the “effect of a mutation on the interaction” value was “with no effect”. With V13K the “effect of a mutation on the interaction” value was “disrupting interaction strength”. For V221A, the “effect of a mutation on the interaction” value was “with no effect”. For V221E, the “effect of a mutation on the interaction” value was “with no effect”. For Y203K, the “effect of a mutation on the interaction” value was “with no effect”. With Y203A the “effect of a mutation on the interaction” value was “with no effect”. In the case of N165K, the “effect of a mutation on the interaction” value is reported as “with no effect”. In the case of A19E, the “effect of a mutation on the interaction” value is reported as “with no effect”. For L218E, the “effect of a mutation on the interaction” value was “with no effect”. In the case of V29K, the “effect of a mutation on the interaction” value is reported as “disrupting interaction strength”. In the case of E338A, the “effect of a mutation on the interaction” value is reported as “with no effect”. In the case of G335A, the “effect of a mutation on the interaction” value is reported as “with no effect”. In the case of F15K, the “effect of a mutation on the interaction” value is reported as “with no effect”. In the case of E158A, the “effect of a mutation on the interaction” value is reported as “with no effect”. For Q285A, the “effect of a mutation on the interaction” value was “disrupting interaction strength”. V288K was tested, and the “effect of a mutation on the interaction” value was “with no effect”. In the case of A323E, the “effect of a mutation on the interaction” value is reported as “disrupting interaction strength”. With H128E the “effect of a mutation on the interaction” value was “with no effect”. D266A was tested, and the “effect of a mutation on the interaction” value was “with no effect”. R207K was tested, and the “effect of a mutation on the interaction” value was “with no effect”. In the case of T183A, the “effect of a mutation on the interaction” value is reported as “with no effect”. T183K was tested, and the “effect of a mutation on the interaction” value was “with no effect”. In the case of D5K, the “effect of a mutation on the interaction” value is reported as “with no effect”. H159K was tested, and the “effect of a mutation on the interaction” value was “with no effect”. N43A was tested, and the “effect of a mutation on the interaction” value was “with no effect”. For S70A, the “effect of a mutation on the interaction” value was “with no effect”. With S70E the “effect of a mutation on the interaction” value was “with no effect”. With I147E the “effect of a mutation on the interaction” value was “with no effect”. F197E was tested, and the “effect of a mutation on the interaction” value was “with no effect”. K87A was tested, and the “effect of a mutation on the interaction” value was “with no effect”. For G234A, the “effect of a mutation on the interaction” value was “disrupting interaction strength”. With L333A the “effect of a mutation on the interaction” value was “with no effect”. With D39K the “effect of a mutation on the interaction” value was “with no effect”. In the case of G42K, the “effect of a mutation on the interaction” value is reported as “with no effect”. For K236E, the “effect of a mutation on the interaction” value was “disrupting interaction strength”. With S260E the “effect of a mutation on the interaction” value was “with no effect”. L146A was tested, and the “effect of a mutation on the interaction” value was “with no effect”. With Q157A the “effect of a mutation on the interaction” value was “with no effect”. In the case of F110K, the “effect of a mutation on the interaction” value is reported as “with no effect”. For S103K, the “effect of a mutation on the interaction” value was “with no effect”. In the case of W168E, the “effect of a mutation on the interaction” value is reported as “with no effect”. E223K was tested, and the “effect of a mutation on the interaction” value was “with no effect”. In the case of T296A, the “effect of a mutation on the interaction” value is reported as “with no effect”. M193A was tested, and the “effect of a mutation on the interaction” value was “with no effect”. In the case of Q91E, the “effect of a mutation on the interaction” value is reported as “with no effect”. Q20E was tested, and the “effect of a mutation on the interaction” value was “with no effect”. E319A was tested, and the “effect of a mutation on the interaction” value was “with no effect”. For N184E, the “effect of a mutation on the interaction” value was “disrupting interaction strength”. S317E was tested, and the “effect of a mutation on the interaction” value was “with no effect”. For S317A, the “effect of a mutation on the interaction” value was “with no effect”. Y257E was tested, and the “effect of a mutation on the interaction” value was “with no effect”. For F180A, the “effect of a mutation on the interaction” value was “with no effect”.

Variants of: B2
Details: with BBS7, Q8IWZ6-2
With I713A the “effect of a mutation on the interaction” value was “with no effect”. In the case of I713K, the “effect of a mutation on the interaction” value is reported as “with no effect”. For I713E, the “effect of a mutation on the interaction” value was “with no effect”. For K691E, the “effect of a mutation on the interaction” value was “with no effect”. With K691A the “effect of a mutation on the interaction” value was “with no effect”.
